One test addresses CHD4 PHD2 finger E447A (UniProt Q14839). Kind of test: NMR titration.
In another test the target is CHD4 PHD2 finger C460W (UniProt Q14839). In words: NMR titration.
Test [1] concerns the target CHD4 PHD2 finger, wild type (UniProt Q14839). In words: other fluorescence titration.
Test [2] shares this target. In words: other fluorescence titration + NMR titration.

For the substance “unmodified H3 peptide (12-mer histone tail peptide)”, the Kd (usually the free concentration of one partner at which half of the binding sites on the other are occupied at equilibrium, for simple one-to-one binding) in the test with CHD4 PHD2 finger E447A worked out at 900 µM; in the test with CHD4 PHD2 finger C460W, 3.7 mM.
Substance H3K9ac peptide (20-mer) displayed a dissociation constant (Kd) in test [1] of 600 nM.
Consider H3K4me2 peptide (affinity measurements), for which the Kd in test [2] stood at 1000 µM.
Consider “H3K9me3 peptide (12-mer histone tail peptide)”, for which the Kd in test [1] came out at 900 nM.
Regarding “histone H3 peptide in which the primary amino group of Ala1 was acetylated”, the equilibrium dissociation constant (Kd) in test [2] came out at 400 µM.
For H3K4me1 peptide (affinity measurements), the equilibrium dissociation constant (Kd) in test [2] amounted to 300 µM.
